# Measurements: patent publication US20210380703A1 (RIGEL PHARMACEUTICALS, published 2021)
# Substitutions are numbered along the chain they refer to.
# B1: 375_E10 (antibody, V domains shown)
# VH: EVQLLESGGGLVQPGGSLRLSCAASGFTFSSYSMNWVRQAPGKGLEWVSGINYNGGYTSYADSVKGRFTISRDNSKNTLYLQMNSLRAEDTAVYYCARGANWHDTALDYWGQGTLVTVSS
# VL: DIQMTQSPSSLSASVGDRVTITCRASQSILSYLNWYQQKPGKAPKLVIYAATSRASGVPSRFSGSGSGTDFTLTISSLQPEDFATYYCQQSYDNPLTFGGGTKVEIK
# notes: Group III
# B2: 376_F04 (antibody, V domains shown)
# VH: B1 VH with S30D, G50N, G55S, S59G, G99S
# VL: not shown
# notes: VH/VL only
# B3: 375_D04 (antibody, V domains shown)
# VH: B1 VH with S30D, S31D, Y32S, N35H, G50N, S59G, R98K, G99S
# VL: B1 VL with L33V, D93E, N94L
# notes: VH/VL only
# B4: 374_F02 (antibody, V domains shown)
# VH: B1 VH with S30D, S49A, G50N, G55S, G99S
# VL: B1 VL with L30V, V47L, T52S, R54L, A55Q, D93E, N94L
# notes: VH/VL only
# B5: 367_B12 (antibody, V domains shown)
# VH: B1 VH with S33G, N35H, S49A, G50S, T58K, A106H
# VL: B1 VL with L33V, R54L, N94T
# notes: Group III
# B6: 376_E08 (antibody, V domains shown)
# VH: B1 VH with S31D, S33G, S49A, G99S
# VL: B1 VL with L30V, L33V, N94S
# notes: VH/VL only
# B7: 367_B01 (antibody, V domains shown)
# VH: B1 VH with S49A, T58K, S59G
# VL: B1 VL with L30S, L33V, D93S, N94T
# notes: Group III
# B8: 376_F03 (antibody, V domains shown)
# VH: B1 VH with S30D, S33G, S49A, G50N, S59G, G99S
# VL: B1 VL with L30I, S31T, L33V, A51T, R54L, D93S, N94S
# notes: VH/VL only
# B9: 367_A12 (antibody, V domains shown)
# VH: B1 VH with S33G, G55S, A106H
# VL: B1 VL with V47L, R54L, A55H, D93N
# notes: Group III
# B10: 376_G09 (antibody, V domains shown)
# VH: B1 VH with S30D, G55S, T58K, S59G, G99S
# VL: B1 VL with L30S, S31Y, V47L, A51V
# notes: VH/VL only
# B11: 376_H10 (antibody, V domains shown)
# VH: B1 VH with S30D, G55S, T58K, G99S
# VL: B1 VL with S31T, A55H, N94S
# notes: VH/VL only
# B12: 376_H09 (antibody, V domains shown)
# VH: B1 VH with S31D, S49A, G50N, S59G, G99S
# VL: B1 VL with L30I, S31T, A50Y, A51V, T52S, S53N, R54L, A55P, N94S
# notes: VH/VL only
# B13: 376_D05 (antibody, V domains shown)
# VH: B1 VH with G50N, T58K, S59G, G99S
# VL: B1 VL with L30V, L33V, V47L, R54L, N94T
# notes: VH/VL only
# B14: 367_C10 (antibody, V domains shown)
# VH: B1 VH with S30D
# VL: B1 VL with L30V, L33V, V47L, A51V, D93E, N94T
# notes: Group III
# B15: 367_H02 (antibody, V domains shown)
# VH: B1 VH with S30D, S33G, G50S, S59G, A106H
# VL: not shown
# notes: Group III
# B16: 367_D03 (antibody, V domains shown)
# VH: B1 VH with S30D, G50S, S59G, A106H
# VL: B1 VL with L30I, S31T, V47L, N94T
# notes: Group III
# B17: 376_G08 (antibody, V domains shown)
# VH: B1 VH with S30D, S33G, S49A, G50N, G99S
# VL: B1 VL with L33V, N94T
# notes: VH/VL only
# B18: 367_H03 (antibody, V domains shown)
# VH: B1 VH with S33G, S49A, G55S, A106H
# VL: B1 VL with L30I, S31T, L33V, V47L, R54L, N94L
# notes: Group III
# B19: 376_F12 (antibody, V domains shown)
# VH: B1 VH with S30D, S31D, S49A, T58K, G99S, N101T, A106H
# VL: not shown
# notes: VH/VL only
# B20: 367_G01 (antibody, V domains shown)
# VH: B1 VH with S30D, S33G, S49A, G50S, G55S, S59G, A106H
# VL: B1 VL with L30S, N94L
# notes: Group III
# B21: 367_C07 (antibody, V domains shown)
# VH: B1 VH with G50S, G55S, S59G, A106H
# VL: B1 VL with S31T, L33V, V47L, D93N, N94L
# notes: Group III
# B22: 367_E05 (antibody, V domains shown)
# VH: B1 VH with S33G, S49A, A106H
# VL: B1 VL with V47L, A55H, N94S
# notes: Group III
# B23: 376_D11 (antibody, V domains shown)
# VH: B1 VH with S33G, S49A, G50N, S59G, G99S
# VL: B1 VL with D93N
# notes: VH/VL only
# B24: 368_A04 (antibody, V domains shown)
# VH: B1 VH with S30D, S31D, S49A, T58K, A106H
# VL: B1 VL with S31T, A51V, D93E, N94L
# notes: Group III
# B25: 376_E03 (antibody, V domains shown)
# VH: B1 VH with S33G, S49A, G50N, S59G, G99S
# VL: B1 VL with L33V, R54L, N94L
# notes: VH/VL only
# B26: 367_D06 (antibody, V domains shown)
# VH: B1 VH with S30D, S49A, A106H
# VL: B1 VL with L30S, S31T, R54L, D93N, N94S
# notes: Group III
# B27: 367_B04 (antibody, V domains shown)
# VH: B1 VH with S30D, G55S, T58K, A106H
# VL: B1 VL with V47L, D93E, N94L
# notes: Group III
# B28: 367_D12 (antibody, V domains shown)
# VH: B1 VH with G50S, S59G, A106H
# VL: B1 VL with L30V, L33V, D93E, N94S
# notes: Group III
# B29: 367_D08 (antibody, V domains shown)
# VH: B1 VH with S31D, S49A, A106H
# VL: B1 VL with A55H, Y92D, N94L
# notes: Group III
# B30: 367_F01 (antibody, V domains shown)
# VH: B1 VH with S30D, G50N, T58K, A106H
# VL: not shown
# notes: Group III
# B31: 368_A03 (antibody, V domains shown)
# VH: B1 VH with S59G, A106H
# VL: B1 VL with L30I, V47L, A51V, D93E
# notes: Group III
# B32: 367_A10 (antibody, V domains shown)
# VH: B1 VH with S33G, S49A, G55S, A106H
# VL: B1 VL with L30I, S31T, L33V, V47L, R54L, N94L
# notes: Group III
# B33: 376_E12 (antibody, V domains shown)
# VH: B1 VH with S49A, T58K, G99S, N101T, A106H
# VL: not shown
# notes: VH/VL only
# B34: 367_G04 (antibody, V domains shown)
# VH: B1 VH with S49A, G55S, A106H
# VL: B1 VL with N94S
# notes: Group III
# What was measured:
# human ACVR2A [1] = target: T1, human ACVR2A (human, UniProt P27037 20-135, limits assumed); assay: ELISA
# T1 construct: coated antigen of the initial ELISA; also called activin receptor, type II A
# Method in brief: (§1)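 Monoclonal antibodies were first applied to human or mouse ACVR2A, alongside biotinylated goat anti-human kappa light chain (positive control) and human Fc (negative control); binding was then determined by ELISA.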
# T1 sequence (P27037 20-135 limits assumed): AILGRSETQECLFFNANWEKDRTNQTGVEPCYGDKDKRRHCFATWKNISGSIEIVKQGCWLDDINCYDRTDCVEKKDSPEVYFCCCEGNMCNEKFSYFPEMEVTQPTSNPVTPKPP
# mouse ACVR2A [2] = target: T2, mouse ACVR2A (mouse, UniProt P27038 20-135, limits assumed); assay: ELISA
# T2 construct: coated antigen of the initial ELISA
# Method in brief: as §1
# T2 sequence (P27038 20-135 limits assumed): as the sequence (P27037 20-135 limits assumed) above, with K20R, V73I counted along it
# [3] = target: T3, biotinylated goat anti-human kappa light chain; assay: ELISA, positive control
# T3 construct: positive control of the ELISA
# Procedure: The binding of ACVR2A-specific monoclonal antibodies to human ACVR2A, mouse ACVR2A, biotinylated goat anti-human kappa light chain (positive control) and human Fc (negative control) were determined by ELISA.
# human ACVR2A [4] = target: human ACVR2A (human, UniProt P27037 20-135, limits assumed); assay: ELISA
# Method in brief: as §1
# Target sequence in this assay (P27037 20-135 limits assumed): as the sequence (P27037 20-135 limits assumed) above
# mouse ACVR2A [5] = target: mouse ACVR2A (mouse, UniProt P27038 20-135, limits assumed); assay: ELISA
# Method in brief: as §1
# Target sequence in this assay (P27038 20-135 limits assumed): as the sequence (P27037 20-135 limits assumed) above, with K20R, V73I counted along it
# [6] = target: T4, biotinylated goat anti-human kappa light chain; assay: ELISA; positive control
# T4 construct: Positive control of the ELISA
# Method in brief: as §1
# Note: test concentration or dose not given here.
Binder,optical density (human ACVR2A [1]),optical density (mouse ACVR2A [2]),optical density [3],optical density (human ACVR2A [4]),optical density (mouse ACVR2A [5]),optical density [6]
B1,3.69 OD,3.79 OD,3.29 OD,–,–,–
B2,–,–,–,3.07 OD,3.29 OD,3.42 OD
B3,–,–,–,3.69 OD,3.7 OD,3.17 OD
B4,–,–,–,3.56 OD,3.59 OD,3.16 OD
B5,3.02 OD,3.03 OD,3.75 OD,–,–,–
B6,–,–,–,3.64 OD,3.64 OD,3.47 OD
B7,2.84 OD,2.91 OD,3.67 OD,–,–,–
B8,–,–,–,3.29 OD,3.47 OD,3.44 OD
B9,2.44 OD,2.42 OD,3.65 OD,–,–,–
B10,–,–,–,3.68 OD,3.65 OD,3.45 OD
B11,–,–,–,3.28 OD,3.29 OD,3.54 OD
B12,–,–,–,3.32 OD,3.3 OD,3.46 OD
B13,–,–,–,3.6 OD,3.71 OD,3.34 OD
B14,2.53 OD,2.61 OD,3.39 OD,–,–,–
B15,1.08 OD,1.2 OD,3.62 OD,–,–,–
B16,2.59 OD,2.45 OD,3.46 OD,–,–,–
B17,–,–,–,3.69 OD,3.64 OD,3.47 OD

Binder,optical density (human ACVR2A [1]),optical density (mouse ACVR2A [2]),optical density [3],optical density (human ACVR2A [4]),optical density (mouse ACVR2A [5]),optical density [6]
B18,2.04 OD,2.2 OD,3.34 OD,–,–,–
B19,–,–,–,3.13 OD,3.25 OD,3.44 OD
B20,1.8 OD,1.94 OD,3.58 OD,–,–,–
B21,2.47 OD,2.52 OD,3.41 OD,–,–,–
B22,2.35 OD,2.64 OD,3.47 OD,–,–,–
B23,–,–,–,3.7 OD,3.62 OD,3.43 OD
B24,2.35 OD,2.35 OD,3.56 OD,–,–,–
B25,–,–,–,3.79 OD,3.74 OD,3.42 OD
B26,2.04 OD,2.35 OD,3.25 OD,–,–,–
B27,2.66 OD,3.1 OD,3.34 OD,–,–,–
B28,2.44 OD,2.69 OD,3.57 OD,–,–,–
B29,2.18 OD,2.37 OD,3.5 OD,–,–,–
B30,2.42 OD,2.76 OD,3.72 OD,–,–,–
B31,2.83 OD,2.83 OD,3.41 OD,–,–,–
B32,1.89 OD,2.16 OD,3.39 OD,–,–,–
B33,–,–,–,3.61 OD,3.32 OD,3.42 OD
B34,2.98 OD,3.04 OD,3.36 OD,–,–,–
